Results published in US20220137067A1.

Key:
[1] = molecular target: biotin beta-amyloid 1-42 peptide (Anaspec) (human); assay: cell-based or functional assay; conditions: scale: % Relative Potency
[2] = molecular target: Recombinant human amyloid β 1-42 peptide (rPeptide) (human); assay: ELISA on plate-adsorbed recombinant human Aβ 1-42, anti-human IgG-HRP detection, parallel line analysis; mean of three assays; conditions: scale: % Relative Potency

| Phagocytosis Reporter Cell Potency [1] | Aβ Binding Potency (% Relative Potency) [2] | Binder |
| --- | --- | --- |
| 99 |  | crenezumab (antibody, INN chains, looked up, V domains shown) VH: EVQLVESGGGLVQPGGSLRLSCAASGFTFSSYGMSWVRQAPGKGLELVASINSNGGSTYYPDSVKGRFTISRDNAKNSLYLQMNSLRAEDTAVYYCASGDYWGQGTTVTVSS VL: DIVMTQSPLSLPVTPGEPASISCRSSQSLVYSNGDTYLHWYLQKPGQSPQLLIYKVSNRFSGVPDRFSGSGSGTDFTLKISRVEAEDVGVYYCSQSTHVPWTFGQGTKVEIKR |
| 86 | 84 | crenezumab light stress sample (2.4 million lux hours) (antibody, INN chains, looked up, V domains shown, light-stressed degraded sample) VH: EVQLVESGGGLVQPGGSLRLSCAASGFTFSSYGMSWVRQAPGKGLELVASINSNGGSTYYPDSVKGRFTISRDNAKNSLYLQMNSLRAEDTAVYYCASGDYWGQGTTVTVSS VL: DIVMTQSPLSLPVTPGEPASISCRSSQSLVYSNGDTYLHWYLQKPGQSPQLLIYKVSNRFSGVPDRFSGSGSGTDFTLKISRVEAEDVGVYYCSQSTHVPWTFGQGTKVEIKR |
